Laboratory results taken from the Human Domainome abundance scans (Beltran et al. 2025).
± gives the uncertainty stated by the source.

B1: Chromodomain-helicase-DNA-binding protein 4, residues 623 to 675; numbered along this chain, Q14839 (parent)
chain: MIHRILNHSVDKKGHVHYLIKWRDLPYDQASWESEDVEIQDYDLFKQSYWNHR

Variants of: B1
Assay: abundance fitness (aPCA) (normalised: wild type 0, dead -1); higher = more abundant; growth selection in yeast, the domain comes from the species named
Conditions: Homo sapiens

| Variant | abundance fitness |
| --- | --- |
| F45E | -0.735 ± 0.28 |
| W50Y | -0.554 ± 0.25 |
| W50E | -0.879 ± 0.17 |
| W50P | -0.824 ± 0.19 |
| W50V | -0.783 ± 0.099 |
| W50A | -0.808 ± 0.13 |
| W50Q | -0.959 ± 0.27 |
| W50F | -0.861 ± 0.17 |
| W50T | -0.733 ± 0.17 |
| W50K | -0.511 ± 0.17 |
| W50I | -0.813 ± 0.21 |
| W50N | -0.766 ± 0.24 |
| W50H | -0.779 ± 0.26 |
| W50R | -0.725 ± 0.089 |
| W50G | -0.813 ± 0.083 |
| W50C | -0.793 ± 0.12 |
| W50D | -1.23 ± 0.26 |
| W50S | -0.653 ± 0.11 |
| W50L | -0.811 ± 0.11 |
| S48W | -0.412 ± 0.1 |
| S48G | -0.206 ± 0.087 |
| S48C | -0.083 ± 0.12 |

| Variant | abundance fitness |
| --- | --- |
| S48Q | -0.053 ± 0.1 |
| S48E | 0.067 ± 0.087 |
| S48P | -0.628 ± 0.13 |
| S48V | -0.011 ± 0.075 |
| S48F | -0.236 ± 0.11 |
| S48K | 0.043 ± 0.097 |
| S48L | -0.01 ± 0.076 |
| S48M | 0.016 ± 0.091 |
| S48R | 0.14 ± 0.075 |
| S48T | -0.124 ± 0.096 |
| S48H | 0.119 ± 0.12 |
| S48A | 0.07 ± 0.078 |
| S48D | 0.043 ± 0.12 |
| S48Y | 0.093 ± 0.13 |
| N51A | 0.014 ± 0.1 |
| N51H | -0.23 ± 0.14 |
| N51V | -0.341 ± 0.1 |
| N51T | 0.037 ± 0.13 |
| N51M | 0.01 ± 0.12 |
| N51C | -0.428 ± 0.15 |
| N51S | -0.079 ± 0.1 |
| N51R | 0.105 ± 0.089 |

| Variant | abundance fitness |
| --- | --- |
| N51D | 0.01 ± 0.16 |
| N51W | -0.45 ± 0.12 |
| N51Y | -0.267 ± 0.21 |
| N51I | -0.564 ± 0.23 |
| N51Q | 0.004 ± 0.14 |
| N51L | -0.194 ± 0.089 |
| N51F | -0.11 ± 0.2 |
| N51K | -0.167 ± 0.13 |
| Q47M | -0.452 ± 0.14 |
| Q47F | -0.318 ± 0.13 |
| Q47H | -0.051 ± 0.14 |
| Q47Y | -0.343 ± 0.16 |
| Q47T | 0.022 ± 0.099 |
| Q47A | -0.114 ± 0.1 |
| Q47I | 0.132 ± 0.12 |
| Q47R | -0.084 ± 0.078 |
| Q47W | -0.475 ± 0.11 |
| Q47S | -0.05 ± 0.081 |
| Q47N | 0.087 ± 0.11 |
| Q47D | -0.289 ± 0.11 |
| Q47C | -0.423 ± 0.096 |
| Q47L | -0.374 ± 0.094 |

| Variant | abundance fitness |
| --- | --- |
| Q47G | -0.483 ± 0.088 |
| Q47P | -0.804 ± 0.16 |
| Q47E | -0.052 ± 0.11 |
| Q47K | 0.239 ± 0.12 |
| Y49S | -0.953 ± 0.13 |
| Y49I | -1.13 ± 0.24 |
| Y49L | -0.751 ± 0.12 |
| Y49Q | -0.997 ± 0.21 |
| Y49A | -0.783 ± 0.12 |
| Y49W | -0.951 ± 0.15 |
| Y49P | -0.696 ± 0.15 |
| Y49C | -1.01 ± 0.18 |
| Y49R | -1 ± 0.13 |
| Y49T | -0.916 ± 0.11 |
| Y49M | -0.747 ± 0.13 |
| Y49F | -0.7 ± 0.18 |
| Y49G | -0.811 ± 0.1 |
| Y49V | -0.877 ± 0.1 |
| Y49K | -0.658 ± 0.15 |
| D43S | -0.307 ± 0.088 |
| D43Q | -0.047 ± 0.11 |
| D43T | -0.367 ± 0.12 |

| Variant | abundance fitness |
| --- | --- |
| D43W | -0.219 ± 0.13 |
| D43R | -0.577 ± 0.1 |
| D43M | -0.262 ± 0.13 |
| D43Y | -0.253 ± 0.15 |
| D43N | -0.161 ± 0.12 |
| K46S | -0.838 ± 0.1 |
| K46Q | -0.485 ± 0.1 |
| K46T | -0.748 ± 0.13 |
| K46F | -0.917 ± 0.17 |
| K46P | -0.875 ± 0.13 |
| K46D | -0.886 ± 0.16 |
| K46Y | -0.856 ± 0.15 |
| K46I | -0.465 ± 0.14 |
| K46G | -0.846 ± 0.099 |
| K46N | -0.886 ± 0.16 |
| K46H | -0.909 ± 0.19 |
| K46E | -0.734 ± 0.16 |
| K46W | -0.856 ± 0.15 |
| K46A | -0.898 ± 0.16 |
| K46R | -0.796 ± 0.09 |
| K46L | -0.593 ± 0.089 |
